Data set [1] deals with coenzyme F420-dependent sulfite reductase (Group I Fsr) from Methanothermococcus thermolithotrophicus (Methanothermococcus thermolithotrophicus (endogenous in strain DSM 2095)). Put plainly: crystal structure; MtFsr at 11 mg/ml cocrystallized with FAD and F420H2; 200 mM lithium sulfate, 100 mM Bis-Tris pH 5.5, 25% w/v PEG 3350; anaerobic, 20 °C; four homotetramers in the asymmetric unit.

For data set [2] the target is unchanged. Briefly: native gel or EMSA; anaerobic high-resolution clear-native PAGE (8-15% gradient) of cell extracts of cultures grown on 2 mM Na2S or 2 mM Na2SO3. A general note: A gel shift assay detects complexes by their altered migration in electrophoresis.
Data set [3] has the same target. Put plainly: SEC; purified MtFsr on Superdex 200 Increase 10/300 GL, 0.4 ml/min, 25 mM Tris-HCl pH 7.6, 10% v/v glycerol, 2 mM DTT, anaerobic; standards conalbumin, aldolase, ferritin; apparent molecular weight. Background: Size exclusion chromatography separates by hydrodynamic size, large species first.
The target of a further data set is T1, MjFsr (Methanocaldococcus jannaschii, UniProt Q58280).
T1 construct: gene fsr; full length, native purification from M. jannaschii grown on sulfite; homotetramer, residues to 620
T1 sequence (Q58280 1-620): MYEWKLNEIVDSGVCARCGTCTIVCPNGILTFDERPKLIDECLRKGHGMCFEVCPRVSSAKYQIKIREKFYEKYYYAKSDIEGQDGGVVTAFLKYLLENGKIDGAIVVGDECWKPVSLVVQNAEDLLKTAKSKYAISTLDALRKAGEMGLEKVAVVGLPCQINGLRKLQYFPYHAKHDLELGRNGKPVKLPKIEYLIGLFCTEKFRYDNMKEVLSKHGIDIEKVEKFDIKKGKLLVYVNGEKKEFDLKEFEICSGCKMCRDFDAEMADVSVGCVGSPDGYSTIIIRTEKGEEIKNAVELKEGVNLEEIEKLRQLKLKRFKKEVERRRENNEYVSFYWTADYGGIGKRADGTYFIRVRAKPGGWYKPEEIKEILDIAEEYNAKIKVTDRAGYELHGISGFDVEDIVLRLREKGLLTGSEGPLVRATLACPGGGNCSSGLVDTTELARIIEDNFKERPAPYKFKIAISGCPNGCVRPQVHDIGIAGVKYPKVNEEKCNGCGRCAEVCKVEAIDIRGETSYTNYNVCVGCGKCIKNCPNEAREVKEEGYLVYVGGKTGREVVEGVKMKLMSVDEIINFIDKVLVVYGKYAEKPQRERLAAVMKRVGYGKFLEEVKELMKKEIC
Put plainly: X-ray crystal structure, […] Å. The data set is classed as binding. Conditions: F420H2-oxidase domain.

The next data set relates to T2, MtFsr.
T2 construct: gene fsr; full length, native purification from M. thermolithotrophicus grown on sulfite (assays) or sulfate (crystals); FAD, siroheme, six [4Fe-4S] clusters per subunit
Put plainly: F420H2 oxidation followed at […] nm. The data set is classed as biochemical, Methanothermococcus thermolithotrophicus. Conditions: anaerobic, read-out: Apparent Km.

Data set [4] concerns the molecule itself. Put plainly: crystal structure; MjFsr at 6.1 mg/ml; 45% v/v 2-methyl-2,4-pentanediol, 100 mM Bis-Tris pH 5.5, 200 mM calcium chloride; anaerobic, 20 °C; two half homotetramers in the asymmetric unit.

Like-named read-outs stand apart in the source and are kept apart here.

In the case of “coenzyme F420-dependent sulfite reductase (Group I Fsr) from Methanothermococcus thermolithotrophicus”, the stoichiometry N in data set [1], in data set [2] and in data set [3] was 4 throughout.
Turning to `Cc1cc2nc3c(=O)[nH]c(=O)nc-3n(C[C@H](O)[C@H](O)[C@H](O)COP(=O)(O)OP(=O)(O)OC[C@H]3O[C@@H](n4cnc5c(N)ncnc54)[C@H](O)[C@@H]3O)c2cc1C` [FAD], the “X-ray crystal structure, 2.30 Å” value at MjFsr is given as “The active site of the F420H2-oxidase domain of Fsr contains a flavin adenine dinucleotide (FAD”.
For the molecule `O=S(O)O` [SO3^2−], the Km (in general, the concentration of substrate that gives half-maximal velocity) with MtFsr (0-500 µM Na2SO3, 50 µM F420H2, 200 mM KH2PO4 pH 7.0, 50 °C) amounted to 15.6 ± 2 µM.
Take `O=NO` [NO2^−]: the Km in the data set with MtFsr (0-500 µM NaNO2, 50 µM F420H2, 200 mM KH2PO4 pH 7.0, 50 °C) amounted to 2.5 ± 0.2 µM.

B1: coenzyme F420-dependent sulfite reductase (Group I Fsr) from Methanocaldococcus jannaschii (enzyme, UniProt Q58280 1-620, looked up)
chain: MYEWKLNEIVDSGVCARCGTCTIVCPNGILTFDERPKLIDECLRKGHGMCFEVCPRVSSAKYQIKIREKFYEKYYYAKSDIEGQDGGVVTAFLKYLLENGKIDGAIVVGDECWKPVSLVVQNAEDLLKTAKSKYAISTLDALRKAGEMGLEKVAVVGLPCQINGLRKLQYFPYHAKHDLELGRNGKPVKLPKIEYLIGLFCTEKFRYDNMKEVLSKHGIDIEKVEKFDIKKGKLLVYVNGEKKEFDLKEFEICSGCKMCRDFDAEMADVSVGCVGSPDGYSTIIIRTEKGEEIKNAVELKEGVNLEEIEKLRQLKLKRFKKEVERRRENNEYVSFYWTADYGGIGKRADGTYFIRVRAKPGGWYKPEEIKEILDIAEEYNAKIKVTDRAGYELHGISGFDVEDIVLRLREKGLLTGSEGPLVRATLACPGGGNCSSGLVDTTELARIIEDNFKERPAPYKFKIAISGCPNGCVRPQVHDIGIAGVKYPKVNEEKCNGCGRCAEVCKVEAIDIRGETSYTNYNVCVGCGKCIKNCPNEAREVKEEGYLVYVGGKTGREVVEGVKMKLMSVDEIINFIDKVLVVYGKYAEKPQRERLAAVMKRVGYGKFLEEVKELMKKEIC
notes: Group I coenzyme F420-dependent sulfite reductase (Fsr) of Methanocaldococcus jannaschii DSM 2661; Native enzyme, no tag; Each chain carries FAD, six [4Fe-4S] clusters and a siroheme; also called MjFsr; source: purified natively from M. jannaschii DSM 2661 cells under anaerobic atmosphere (Q Sepharose, Source15Phe, Superdex 200)
On to B1, for which the stoichiometry N (usually the number of molecules, sites or subunits per partner or assembly) in data set [4] was found to be 4.

Source of the values: publication PMC10229431, “Structures of the sulfite detoxifying F420-dependent enzyme from Methanococcales” (Nature Chemical Biology, 2023).
